Experiment [1] concerns the target Human TNFα (human) (UniProt P01375). The experiment in a line: Binding ELISA to hTNFα.
The target of experiment [2] is FcRn (FCGRT&B2M) (UniProt P55899). The experiment is described as follows: SPR, steady state model, against HUMIRA.
For experiment [3], the target named is FcγRIIA (CD32a, H167) (UniProt P12318). The experiment is described as follows: SPR, steady state model, against HUMIRA. (Surface plasmon resonance follows binding to a sensor surface in real time, without labels.)
Experiment [4] addresses FcγRIIB (CD32b) (UniProt P31994). The experiment in a line: SPR, steady state model, against HUMIRA.
Experiment [5] addresses FcγRIIIA (CD16a, V167) (UniProt P08637). The experiment is described as follows: SPR, heterogenous ligand model, Mean KD2.
Experiment [6] has as its target FcγRI (CD64) (UniProt P12314). The experiment in a line: SPR, heterogenous ligand model, Mean KD2.
Experiment [7] concerns the target FcγRIIIA (CD16a, F167) (UniProt P08637). The experiment in a line: SPR, heterogenous ligand model, Mean KD2.
In experiment [8] the target is Human TNFα (human) (UniProt P01375). The experiment in a line: SPR, human TNFα, relative to HUMIRA.
Experiment [9] deals with Macaque TNFα (macaque) (UniProt P79337). The experiment is described as follows: ELISA, macaque TNFα, relative to HUMIRA.
The target in experiment [10] is FcγRIIIA (CD16a, V167) (UniProt P08637). The experiment is described as follows: SPR, heterogenous ligand model, KD1, against HUMIRA.
Experiment [11] deals with FcγRI (CD64) (UniProt P12314). The description is as above.
Experiment [12] addresses FcγRIIIA (CD16a, F167) (UniProt P08637). The description is as above.
Experiment [13] has as its target Human TNFα (human) (UniProt P01375). The experiment in a line: ELISA, human TNFα, relative to HUMIRA. (In an ELISA, binding on a coated surface is turned into a signal by an enzyme label.)
Experiment [14] concerns the target FcγRIIIB (CD16b) (UniProt O75015). The experiment in a line: SPR, Mean (one KD printed).
In experiment [15] the target is Macaque TNFα (macaque) (UniProt P79337). The experiment in a line: SPR, macaque TNFα, relative to HUMIRA.
Experiment [16] concerns the target FcγRIIIA (CD16a, V167) (UniProt P08637). The experiment is described as follows: SPR, heterogenous ligand model, KD2, against HUMIRA.
Experiment [17] deals with FcγRI (CD64) (UniProt P12314). The experiment is described as above.
In experiment [18] the target is FcγRIIIA (CD16a, F167) (UniProt P08637). The description is as above.
The target in experiment [19] is FcRn (FCGRT&B2M) (UniProt P55899). The experiment is described as follows: SPR, steady state model, Mean.
For experiment [20], the target named is FcγRIIA (CD32a, H167) (UniProt P12318). The experiment in a line: SPR, steady state model, Mean.
In experiment [21] the target is FcγRIIB (CD32b) (UniProt P31994). The experiment is described as follows: SPR, steady state model, Mean.
The target of experiment [22] is FcγRIIIA (CD16a, V167) (UniProt P08637). The experiment in a line: SPR, heterogenous ligand model, Mean KD1.
In experiment [23] the target is FcγRI (CD64) (UniProt P12314). The experiment is described as follows: SPR, heterogenous ligand model, Mean KD1.
Experiment [24] has as its target FcγRIIIA (CD16a, F167) (UniProt P08637). The experiment is described as follows: SPR, heterogenous ligand model, Mean KD1.
For experiment [25], the target named is FcγRIIIB (CD16b) (UniProt O75015). The experiment is described as follows: SPR, against HUMIRA.
The target in experiment [26] is Human TNFα (human) (UniProt P01375). The experiment is described as follows: cell-based or functional assay.
Experiment [27] has as its target Macaque TNFα (macaque) (UniProt P79337). The experiment in a line: ELISA, macaque TNFα, reference.
The target is the same in experiment [28]. The experiment in a line: SPR, macaque TNFα, reference.

By Kd is commonly meant a measure of binding affinity in units of concentration.

The substance Adalimumab K84N (A-84S) (antibody) registered a Normalized EC50 vs HUMIRA in [1] of 121%.

As to “Adalimumab K84N-D86N (A-8486S) (antibody)”, the Fold change (KD(HUMIRA)/KD(A-8486S)) is 0.7 fold in experiment [2]; 0.9 fold in [3]; 1.4 fold in [4]; 29.8 fold in experiment [10]; 1.7 fold in experiment [11]; 21.3 fold in [12]. Besides, the Fold change (KD(HUMIRA)/KD(A-8486S)) turned out to be 2.8 fold in experiment [16], 1.1 fold in [17], 9 fold in [18] and 10.9 fold in [25]. In addition, the Rel. binding affinity (KD(HUMIRA)/KD(A-8486S)*100) in experiment [2] was 71%; in experiment [3] it was 92%; in experiment [4], 138%; in experiment [10] it was 2980%; in experiment [11] it was 174%; in [12], 2130%. The Rel. binding affinity (KD(HUMIRA)/KD(A-8486S)*100) in experiment [16] worked out at 280%; in experiment [17], 109%; in [18] it was 902%; in [25] it was 1090%. For the same substance, the equilibrium dissociation constant (Kd) in experiment [5] stood at 27.4 nM; in experiment [6], 6.27 nM; in [7], 123 nM; in [14] it was 152 nM; in [19] it was 1100 nM; in [20] it was 785 nM. In addition, the equilibrium dissociation constant (Kd) was found to be 2200 nM in experiment [21], 2.69 nM in [22], 0.326 nM in [23] and 12.2 nM in experiment [24]. Further, the Rel. binding affinity in [8] turned out to be 84%; in [15], 77%. Moreover, the Rel. binding in [9] was determined as 99%; in [13], 86%. This substance also returned a Normalized EC50 vs HUMIRA in [1] of 116%. In experiment [26], this substance displayed an L929 apoptosis, Rel. IC50 of 89%.

Consider HUMIRA (adalimumab) (antibody), for which, in experiment [27], the Rel. binding turned out to be 100%. This substance also displayed a Rel. binding affinity in experiment [28] of 100%. Moreover, the Kd in experiment [5] was determined as 76.6 nM; in experiment [6], 6.86 nM; in [7], 1110 nM; in experiment [14] it was 1650 nM; in experiment [19], 778 nM; in [20], 723 nM. Also, the dissociation constant (Kd) in experiment [21] amounted to 3040 nM; in experiment [22] it was 80.1 nM; in experiment [23], 0.566 nM; in experiment [24], 260 nM.

The record behind these values is patent US20240067714A1.
